Measured values taken from patent publication US20100204091A1 (YEDA RESEARCH AND DEVELOPMENT, published 2010).
One block for each binder: values may come before it. No end group written: not given here.

Key:
FLAG tagged TRAF2 [1] = target: T1, FLAG tagged TRAF2 (UniProt Q12933 1-501); experiment: co-immunoprecipitation with anti FLAG-M2 beads from transfected HEK 293T cells, anti HIS blot
T1 construct: For in vitro assays purified on anti-FLAG M2 beads and eluted with FLAG peptide; also called FLAG-TRAF2
T1 sequence (looked up): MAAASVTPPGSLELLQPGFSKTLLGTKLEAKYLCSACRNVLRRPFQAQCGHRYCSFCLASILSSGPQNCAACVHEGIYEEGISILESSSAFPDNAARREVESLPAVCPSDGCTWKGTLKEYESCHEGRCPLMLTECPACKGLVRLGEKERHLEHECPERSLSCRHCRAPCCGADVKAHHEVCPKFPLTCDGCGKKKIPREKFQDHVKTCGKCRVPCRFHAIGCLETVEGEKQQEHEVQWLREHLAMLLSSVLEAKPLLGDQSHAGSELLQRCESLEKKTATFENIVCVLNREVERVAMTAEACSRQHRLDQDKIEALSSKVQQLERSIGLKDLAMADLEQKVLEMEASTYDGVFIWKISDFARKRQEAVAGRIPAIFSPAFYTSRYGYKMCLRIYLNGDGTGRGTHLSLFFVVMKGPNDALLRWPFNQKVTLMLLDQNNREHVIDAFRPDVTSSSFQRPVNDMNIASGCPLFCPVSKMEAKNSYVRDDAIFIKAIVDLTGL
Procedure: (§1) In order to explore whether TRAF2 binds to SIVA2, FLAG tagged TRAF2 was immuno-precipitated from transfected […] cells using anti-FLAG M2 beads. TRAF2 was eluted from the beads using FLAG peptide. The eluted FLAG tagged TRAF2 was incubated with recombinant (bacterially expressed) GST tagged SIVA2 or GST tagged ring finger mutant SIVA2 at 30° C. for one hour in a volume of 50 μl of buffer (30 mM HEPES, pH 7.6, 5 mM MgCl2, 0.2 mM DTT). Next, the binding mix was diluted to 1 ml to attain the following composition −30 mM HEPES, 5 mM MgCl2, 0.2 mM DTT, 150 mM NaCl, 1% Triton X100 and 1 mM EDTA. Immunoprecipitation was carried out with anti-FLAG for TRAF2 and Western blotting analysis was carried out with anti SIVA to detect coprecipitating SIVA. […] The latter was confirmed in the following experiment. HEK 293T cells were co-transfected with 12 ug of HIS-SIVA2 or deletions of SIVA2 lacking the ring finger (SIVA2 1-58 and SIVA 1-81) and FLAG-TRAF2 by calcium phosphate method. 24 hours post transfection; cells were harvested and lysed in 1% Triton containing lysis buffer. TRAF2 was immunoprecipitated using anti FLAG-M2 beads and coprecipitated SIVA2 was probed by Western blotting using anti HIS antibody. Total lysis in FIG. 11D show the expression levels of the proteins. […] (FIG. 11D).

[2] = target: T2, NF-κB-inducing kinase, NIK, (MAP3K14) (human, UniProt Q99558 1-947); experiment: co-immunoprecipitation from transfected cells (deletion analysis)
T2 construct: in yeast two-hybrid used as bait fusion; also called myc-NIK; wild type NIK
T2 sequence (Q99558 whole entry, the tested form may be a part): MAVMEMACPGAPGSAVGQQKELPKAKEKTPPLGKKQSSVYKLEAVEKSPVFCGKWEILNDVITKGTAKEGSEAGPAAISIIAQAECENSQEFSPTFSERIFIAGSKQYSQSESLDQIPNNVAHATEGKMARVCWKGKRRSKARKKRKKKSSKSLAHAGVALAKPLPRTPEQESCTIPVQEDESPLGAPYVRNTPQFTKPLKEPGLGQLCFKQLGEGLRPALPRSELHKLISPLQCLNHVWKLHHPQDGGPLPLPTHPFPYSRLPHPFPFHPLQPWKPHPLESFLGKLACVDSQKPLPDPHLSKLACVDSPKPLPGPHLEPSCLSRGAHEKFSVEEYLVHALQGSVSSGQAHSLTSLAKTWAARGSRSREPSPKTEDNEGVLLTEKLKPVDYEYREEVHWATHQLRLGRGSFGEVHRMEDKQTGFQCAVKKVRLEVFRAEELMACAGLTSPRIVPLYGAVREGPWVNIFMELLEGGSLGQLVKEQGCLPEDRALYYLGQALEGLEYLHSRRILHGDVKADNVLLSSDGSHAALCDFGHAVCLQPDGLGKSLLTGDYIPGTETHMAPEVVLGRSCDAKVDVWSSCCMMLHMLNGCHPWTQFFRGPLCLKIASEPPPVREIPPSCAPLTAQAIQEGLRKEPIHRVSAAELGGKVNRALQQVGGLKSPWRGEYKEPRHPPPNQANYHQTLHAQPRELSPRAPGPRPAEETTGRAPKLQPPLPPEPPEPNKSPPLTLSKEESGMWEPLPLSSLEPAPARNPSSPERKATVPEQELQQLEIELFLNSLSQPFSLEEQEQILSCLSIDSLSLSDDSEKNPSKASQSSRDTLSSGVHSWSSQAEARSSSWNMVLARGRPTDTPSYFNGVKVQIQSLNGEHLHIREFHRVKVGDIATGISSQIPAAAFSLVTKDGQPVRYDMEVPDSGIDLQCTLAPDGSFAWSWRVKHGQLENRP

[3] = target: T2, NF-κB-inducing kinase, NIK, (MAP3K14); experiment: yeast two-hybrid, human bone-marrow library, NIK as bait
Procedure: Yeast two-hybrid screening: The system used for screening was the Matchmaker version III (clontech). The prey was pre-transformed human bone marrow library (cat# HY4053AH) that offers high stringent quadruple drop out (QDO) selection along with a-gal assay. Clones growing on plates without LEU, TRP, HIS and ADE were reconfirmed by a-gal assay, which is much more specific than the usual, often leaky, b-gal assay. Plasmids of the positive clones were prepared as follows. Single clones were inoculated into QDO liquid broth and grown overnight at 37° C. Cells were pelleted at 10,000 g and resuspended in 200 μl of buffer containing 2% Triton X-100, 1% SDS, 100 mM NaCl, 10 mM Tris pH8.0, and 1 mM EDTA. The lysates were vortexed for 2 min after adding 200 μl of phenol: chloroform: isoamyl alcohol (25:24:1) and 0.3 g of 600 microns acid washed glass beads (Sigma). Supernatant was collected by centrifugation at 12,000 g and the DNA was precipitated by sodium acetate/ethanol precipitation method (Sambrook et al., 1989). Encoded inserts from the plasmids were amplified by PCR with the primers specific for the library vector pACT2. For further biochemical analysis of individual clones, the amplicons were directly cloned into the N-terminally HIS tagged mammalian expression vector pcDNA3.1 (Invitrogen).

FLAG tagged TRAF2 [4] = target: T1, FLAG tagged TRAF2; experiment: in vitro incubation of eluted FLAG TRAF2 with bacterial GST tagged SIVA2, anti-FLAG IP, anti SIVA blot
Procedure: as §1

binding result (FLAG tagged TRAF2 [1]): no binding | binding result [2]: no binding
B1: SIVA2 1-58 (other)
chain: MPKRSCPFADVAPLQLKVRVSQRELSRGVCAERYSQEVFDPSGVASIACSSCVRAVDG
modifications: cysteine pairing not given here; also: His tag, sequence and position not given here
notes: HIS tagged deletion mutant lacking ring and zinc fingers; also called SIVA 1-58; SIVA2 N-terminus

binding result [3]: binds
B2: SIVA-C (C-terminal part of SIVA, amino acids 123-175 in SIVA1 or 58-110 in SIVA2) (other)
chain: KAVCGQCERALCGQCVRTCWGCGSVACTLCGLVDCSDMYEKVLCTSCAMFET
notes: Prey fragment from a human bone marrow two-hybrid library; in mammalian cells HIS tagged; also called SIVA-C terminus; C-terminal fragment of SIVA

binding result (FLAG tagged TRAF2 [4]): binds
B3: GST-SIVA2 (bacterially expressed GST tagged SIVA2) (other)
chain: MPKRSCPFADVAPLQLKVRVSQRELSRGVCAERYSQEVFDPSGVASIACSSCVRAVDGKAVCGQCERALCGQCVRTCWGCGSVACTLCGLVDCSDMYEKVLCTSCAMFET
notes: Cloned into pGEX and expressed in BL-21 cells; also called recombinant GST-SIVA; recombinant SIVA2; not shown: glutathione S-transferase tag of the pGEX vector
